According to PMC4764983:

Molecular target: histone deacetylase 1 (HDAC1), endogenous mouse (mouse (endogenous in C3H10T1/2 and STO)) (UniProt O09106)
Chain of UniProt O09106 (O09106 whole entry): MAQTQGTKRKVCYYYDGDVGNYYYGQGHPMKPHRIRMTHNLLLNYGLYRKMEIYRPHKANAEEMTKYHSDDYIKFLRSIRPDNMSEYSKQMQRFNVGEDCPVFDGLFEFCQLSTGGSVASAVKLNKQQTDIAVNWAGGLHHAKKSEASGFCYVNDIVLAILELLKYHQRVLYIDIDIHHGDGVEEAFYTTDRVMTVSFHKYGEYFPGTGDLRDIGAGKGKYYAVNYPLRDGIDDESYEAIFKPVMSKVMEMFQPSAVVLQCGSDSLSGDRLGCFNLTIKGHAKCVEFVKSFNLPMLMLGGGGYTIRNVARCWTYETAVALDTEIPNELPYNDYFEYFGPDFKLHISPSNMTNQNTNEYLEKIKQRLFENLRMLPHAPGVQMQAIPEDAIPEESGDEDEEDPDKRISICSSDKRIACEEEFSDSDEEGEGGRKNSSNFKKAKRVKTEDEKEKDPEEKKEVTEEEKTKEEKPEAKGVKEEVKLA

V5-tagged SS18-SSX1 fusion protein
fold increase in AXIN2 message (Q-PCR) after treatment with the HDAC inhibitor TSA in C3H10T1/2^SS18-SSX1-V5 cells, compared to a 6 fold increase in C3H10T1/2^pLIVc: 3 fold
